The assay concerns the target ペプチド13(Aβのaa 13-21) (UniProt P05067). Kind of assay: ELISA on biotinylated peptides (Mimotopes format). (ELISA stands for enzyme-linked immunosorbent assay.)

B1: ヒト化抗ヒトアミロイドβモノクローナル抗体hC2 (antibody, human IgG4 S228P, kappa, V domains shown)
VH: EVQLVESGGGLVQPGGSLRLSCAASGFTFSSYGMSWVRQAPGKGLELVASINSNGGSTYYPDSVKGRFTISRDNAKNSLYLQMNSLRAEDTAVYYCASGDYWGQGTTVTVSS
VL: DIVMTQSPLSLPVTPGEPASISCRSSQSLVYSNGDTYLHWYLQKPGQSPQLLIYKVSNRFSGVPDRFSGSGSGTDFTLKISRVEAEDVGVYYCSQSTHVPWTFGQGTKVEIKR
For the molecule B1, the percent higher affinity than for whole Aβ1-42 protein amounted to 36%.

(Values after patent JP2023110925A.)
